Experimental data as given in patent publication US20240270846A1 (published 2024).

T1: cynomolgus monkey CD137 (cynomolgus monkey, UniProt Q07011 24-186 (human entry), limits assumed)
T1 construct: Soluble analyte in the Biacore assay; also called cyno CD137
T1 chain: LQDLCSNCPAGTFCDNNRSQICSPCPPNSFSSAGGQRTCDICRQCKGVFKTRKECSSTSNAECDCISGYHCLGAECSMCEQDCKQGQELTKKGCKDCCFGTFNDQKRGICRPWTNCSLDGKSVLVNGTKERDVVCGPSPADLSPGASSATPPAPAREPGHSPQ


Key:
[1] = target: T2, biotin-labeled human CD137 fused to human IgG1 Fc fragment (human, biotin-labeled); test: bead ELISA, IgG on biotin-human CD137-Fc on streptavidin beads, no free CD3e
T2 construct: Immobilised on streptavidin beads through biotin; also called human CD137-Fc; biotin-human CD137-Fc

[2] = target: T2, biotin-labeled human CD137 fused to …; test: competitive bead ELISA, IgG on biotin-human CD137-Fc, competitor free CD3 epsilon peptide 125 pmol/well
[3] = target: T2, biotin-labeled human CD137 fused to …; test: competitive bead ELISA, decrease of signal on biotin-human CD137-Fc with 125 pmol/well free CD3 epsilon peptide against 0
human CD137 = target: T3, human CD137 (human, UniProt Q07011 24-186); test: SPR Biacore T200, IgG captured on protein A, antigen as analyte, 25 C;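 note: antigens flowed over a CM3 chip for 120 s association, KD derived from ka and kd, running buffer (ACES, NaCl, Tween20, pH 7.4) served as blank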
T3 construct: Soluble analyte in the Biacore assay; also called 4-1BB; hCD137

cynomolgus monkey CD137 = target: T1, cynomolgus monkey CD137; test: as above
human CD3ed = target: T4, human CD3ed (human, UniProt P07766 23-126; P04234 22-105, limits assumed); test: as above
T4 construct: The construct injected as 'human CD3ed' in the Biacore assay is not defined; also called human CD3 epsilon/delta heterodimer
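Throughout, for ELISA signal, free CD3e 125 pmol/well: bead ELISA on streptavidin-coated magnetic beads, with the signal read as well fluorescence 2 min after APS-5 addition.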

Binder	ELISA signal, free CD3e 0 pmol/well [1]	ELISA signal, free CD3e 125 pmol/well [2]	Signal decrease [3]	Kd (human CD137)	koff (human CD137)	kon (human CD137)	Kd (cynomolgus monkey CD137)	koff (cynomolgus monkey CD137)	Kd (human CD3ed)	koff (human CD3ed)	kon (human CD3ed)	kon (cynomolgus monkey CD137)
dBBDu139 (antibody, human IgG1, V domains shown, IgG: VH joined to human IgG1 CH1-Fc, GLS3000 as light chain) VH: QVQLVESGGGLVQPGRSLRLSCAASGFTFSNAWMHWVRQAPGKGLEWVAQIKDRGNAYNAYYAESVKGRFTISRDDSKNSIYLQMNSLKTEDTAVYYCRFVHYRHPLLHIQYGVDAWGQGTTVTVSS VL: DIVMTQSPLSLPVTPGEPASISCRSSQSLVHSNRNTYLHWYQQKPGQAPRLLIYKVSNRFSGVPDRFSGSGSGTDFTLKISRVEAEDVGVYYCGQGTQVPYTFGQGTKLEIK	9440	1920	79.6%									
dBBDu197 (antibody, human IgG1, V domains shown, IgG: VH joined to human IgG1 CH1-Fc, GLS3000 as light chain) VH: QVQLVESGGGLVQPGRSLRLSCAASGFTFSNAWMHWVRQAPGKGLEWVAQIKDRSNAYAAYYAPSVKGRFTISRDDSKNSIYLQMNSLKTEDTAVYYCHYVHYASASTVLPAFGVDAWGQGTTVTVSS VL: DIVMTQSPLSLPVTPGEPASISCRSSQSLVHSNRNTYLHWYQQKPGQAPRLLIYKVSNRFSGVPDRFSGSGSGTDFTLKISRVEAEDVGVYYCGQGTQVPYTFGQGTKLEIK	54400	2110	96.1%									
dBBDu_186 / dBBDu_L098 (antibody, human IgG1, V domains shown, Tested as IgG (human IgG1 constant region, kappa light chain); also called dBBDu186/L098) VH: QVQLVESGGGLVQPGRSLRLSCAASGFTFSNAWMHWVRQAPGKGLEWVAQIKDRSNQYATYYAPSVKGRFTISRDDSKNSIYLQMNSLKTEDTAVYYCHYVHYAQASTVLPAFGVDAWGQGTTVTVSS VL: DIVMTQSPLSLPVTPGEPASISCAASEELVHINRYIFLHWYQQKPGQAPRLLIYKVSNRFIGVPDRFSGSGSGTDFTLKISRVEAEDVGVYYCAQGSQVPFTFGQGTKLEIK				2.31 µM	0.000534 s⁻¹	231 M⁻¹ s⁻¹	134 µM	0.00119 s⁻¹	1.88 µM	0.0209 s⁻¹	11100 M⁻¹ s⁻¹	
dBBDu_186 / dBBDu_L100 (antibody, human IgG1, V domains shown, Tested as IgG (human IgG1 constant region, kappa light chain); also called dBBDu186/L100) VH: QVQLVESGGGLVQPGRSLRLSCAASGFTFSNAWMHWVRQAPGKGLEWVAQIKDRSNQYATYYAPSVKGRFTISRDDSKNSIYLQMNSLKTEDTAVYYCHYVHYAQASTVLPAFGVDAWGQGTTVTVSS VL: DIVMTQSPLSLPVTPGEPASISCSASEELVHINRYIFLHWYQQKPGQAPRLLIYKVYNRFMGVPDRFSGSGSGTDFTLKISRVEAEDVGVYYCGQGSSVPFTFGQGTKLEIK				1.91 µM	0.000746 s⁻¹	391 M⁻¹ s⁻¹	70.4 µM	0.00208 s⁻¹	3.36 µM	0.0546 s⁻¹	16200 M⁻¹ s⁻¹	
dBBDu_186 / dBBDu_L106 (antibody, human IgG1, V domains shown, Tested as IgG (human IgG1 constant region, kappa light chain); also called dBBDu186/L106) VH: QVQLVESGGGLVQPGRSLRLSCAASGFTFSNAWMHWVRQAPGKGLEWVAQIKDRSNQYATYYAPSVKGRFTISRDDSKNSIYLQMNSLKTEDTAVYYCHYVHYAQASTVLPAFGVDAWGQGTTVTVSS VL: DIVMTQSPLSLPVTPGEPASISCSTSEELLHINRFIFLHWYQQKPGQAPRLLIYKVANRFMGVPDRFSGSGSGTDFTLKISRVEAEDVGVYYCAQGSQVPFTFGQGTKLEIK				3.44 µM	0.000447 s⁻¹	130 M⁻¹ s⁻¹	61.3 µM	0.00126 s⁻¹	3.09 µM	0.0318 s⁻¹	10300 M⁻¹ s⁻¹	
dBBDu_186 / dBBDu_L108 (antibody, human IgG1, V domains shown, Tested as IgG (human IgG1 constant region, kappa light chain); also called dBBDu186/L108) VH: QVQLVESGGGLVQPGRSLRLSCAASGFTFSNAWMHWVRQAPGKGLEWVAQIKDRSNQYATYYAPSVKGRFTISRDDSKNSIYLQMNSLKTEDTAVYYCHYVHYAQASTVLPAFGVDAWGQGTTVTVSS VL: DIVMTQSPLSLPVTPGEPASISCRTSEELLHINRFTFLHWYQQKPGQAPRLLIYKVSNRFMGVPDRFSGSGSGTDFTLKISRVEAEDVGVYYCAQGSAVPFTFGQGTKLEIK				2.41 µM	0.00081 s⁻¹	335 M⁻¹ s⁻¹	16.1 µM	0.00361 s⁻¹	3.01 µM	0.0408 s⁻¹	13600 M⁻¹ s⁻¹	225 M⁻¹ s⁻¹
dBBDu_189 / dBBDu_L119 (antibody, human IgG1, V domains shown, Tested as IgG (human IgG1 constant region, kappa light chain); also called dBBDu189/L119) VH: QVQLVESGGGLVQPGRSLRLSCAASGFTFSNAWMHWVRQAPGKGLEWIAQIKDRSNQYATYYAPSVKGRFTISRDDSKNSIYLQMNSLKTEDTAVYYCHYVHYAQASSLLPSFGVDAWGQGTTVTVSS VL: DIVMTQSPLSLPVTPGEPASISCTASQELVHINRFIFLHWYQQKPGQAPRLLIYKVSNRFIGVPDRFSGSGSGTDFTLKISRVEAEDVGVYYCAQGSQVPFTFGQGTKLEIK				2.71 µM	0.000402 s⁻¹	148 M⁻¹ s⁻¹	35.7 µM	0.00122 s⁻¹	2.06 µM	0.0258 s⁻¹	12500 M⁻¹ s⁻¹	
dBBDu_189 / dBBDu_L126 (antibody, human IgG1, V domains shown, Tested as IgG (human IgG1 constant region, kappa light chain); also called dBBDu189/L126) VH: QVQLVESGGGLVQPGRSLRLSCAASGFTFSNAWMHWVRQAPGKGLEWIAQIKDRSNQYATYYAPSVKGRFTISRDDSKNSIYLQMNSLKTEDTAVYYCHYVHYAQASSLLPSFGVDAWGQGTTVTVSS VL: DIVMTQSPLSLPVTPGEPASISCRTSEELLHINRYIFLHWYQQKPGQAPRLLIYKVQNRFSGVPDRFSGSGSGTDFTLKISRVEAEDVGVYYCAQGSAVPFTFGQGTKLEIK				0.513 µM	0.000688 s⁻¹	1340 M⁻¹ s⁻¹	3.06 µM	0.00247 s⁻¹	2.57 µM	0.0281 s⁻¹	10900 M⁻¹ s⁻¹	807 M⁻¹ s⁻¹
dBBDu_193 / dBBDu.L127 (antibody, human IgG1, V domains shown, Tested as IgG (human IgG1 constant region, kappa light chain); also called dBBDu193/L127; dBBDu_193/L127) VH: QVQLVESGGGLVQPGRSLRLSCAASGFTFSNAWMHWVRQAPGKGLEWVAQIKDRSNQYATYYAPSVKGRFTISRDDSKNSIYLQMNSLKTEDTAVYYCHYVHYSAASTLLPSFGVDAWGQGTTVTVSS VL: DIVMTQSPLSLPVTPGEPASISCRASEELLHINRHIFLHWYQQKPGQAPRLLIYKVYNRFTGVPDRFSGSGSGTDFTLKISRVEAEDVGVYYCAQGTSVPFTFGQGTKLEIK				3.3 µM	0.00145 s⁻¹	440 M⁻¹ s⁻¹	28.1 µM	0.00316 s⁻¹	1.51 µM	0.0191 s⁻¹	12600 M⁻¹ s⁻¹	112 M⁻¹ s⁻¹
dBBDu_193 / dBBDu.L132 (antibody, human IgG1, V domains shown, Tested as IgG (human IgG1 constant region, kappa light chain); also called dBBDu193/L132; dBBDu_193/L132) VH: QVQLVESGGGLVQPGRSLRLSCAASGFTFSNAWMHWVRQAPGKGLEWVAQIKDRSNQYATYYAPSVKGRFTISRDDSKNSIYLQMNSLKTEDTAVYYCHYVHYSAASTLLPSFGVDAWGQGTTVTVSS VL: DIVMTQSPLSLPVTPGEPASISCQTSEELVHINRFIFLHWYQQKPGQAPRLLIYKVSNRFSGVPDRFSGSGSGTDFTLKISRVEAEDVGVYYCAQGTSVPFTFGQGTKLEIK				4.48 µM	0.00211 s⁻¹	471 M⁻¹ s⁻¹	757 µM	0.0061 s⁻¹	2.03 µM	0.0201 s⁻¹	9890 M⁻¹ s⁻¹	
dBBDu_167 / dBBDu.L094 (antibody, human IgG1, V domains shown, Tested as IgG (human IgG1 constant region, kappa light chain); also called dBBDu167/L094; dBBDu_167/L094) VH: QVQLVESGGGLVQPGRSLRLSCAASGFTFSNAWMHWVRQAPGKGLEWVAQIKDKGNLYAAYYAPSVKGRFTISRDDSKNSIYLQMNSLKTEDTAVYYCHYVHYASAGGGLPGFGVDAWGQGTTVTVSS VL: DIVMTQSPLSLPVTPGEPASISCYASEELLHINRHIYLHWYQQKPGQAPRLLIYKVYNRFNGVPDRFSGSGSGTDFTLKISRVEAEDVGVYYCAQGSSVPFTFGQGTKLEIK				8.43 µM	0.0102 s⁻¹	1210 M⁻¹ s⁻¹	6.92 µM	0.0748 s⁻¹	0.349 µM	0.021 s⁻¹	60200 M⁻¹ s⁻¹	10800 M⁻¹ s⁻¹
